Experimental findings from patent publication US20110059095A1 (Regeneron, published 2011) are described below.

Where no end group is shown, it is not given here. The star is where a group is joined. Biotin = O=C1N[C@H]2[C@H](CS[C@H]2CCCCC(=O)*)N1

A word on the Kd: it is the free concentration of one partner at which half of the binding sites on the other are occupied at equilibrium, for simple one-to-one binding. The EC50 is the concentration giving half of the maximal effect.

In assay [1] the target is T1, Peptide A (human PAR-2), unbiotinylated (Human).
T1 construct: also called Peptide A No Biotin
T1 peptide: GTNRSSKGRSLIGKVDGT
Put plainly: SPR, antibody captured. As for the experimental part: (§1) Equilibrium dissociation constants (KD values) for antigen binding to selected purified PAR-2 antibodies were determined by surface kinetics using a real-time surface plasmon resonance biosensor assay. Antibody was captured on either a rabbit anti-mouse IgG polyclonal antibody (GE Healthcare, Piscataway, N.J.) surface or a goat anti-human IgG polyclonal antibody (Jackson Immuno Research Lab, West Grove, Pa.) surface created through direct amine chemical coupling to a BIACORE™ CM5 sensor chip to form a captured antibody surface. […] Antigen-antibody binding and dissociation were monitored in real time at room temperature. Kinetic analysis was performed to calculate KD and half-life of antigen/antibody complex dissociation (Table 10). For those antibodies where no T_{1/2} value is shown, steady state analysis was used to calculate the KD value. NB: no binding observed under current experimental conditions. ND: not determined.
In general terms: Surface plasmon resonance follows binding to a sensor surface in real time, without labels.

Assay [2] concerns the target T2, Peptide A (human PAR-2), C-terminal biotinylated (Human, C-terminal biotin via G4S linker).
T2 construct: also called Peptide A C-Term
Put plainly: SPR, peptide immobilized. An outline of the steps:
(§2)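 Neutravidin was amine-coupled to a C1 or CM5 chip, and N- or C-terminal biotinylated peptide was captured at low density (<1RU). Purified antibody at 5–100 μg/ml was injected at 50 μl/min for 300 s, with binding and dissociation monitored in real time at 25° C. KD was derived from surface kinetics.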

The target in assay [3] is T3, Peptide B (human PAR-2), C-terminal biotinylated (Human, not fully specified).
T3 construct: also called Peptide B C-Term
T3 peptide: SLIGKVDGTSHVTGGGGGS-biotin
Put plainly: SPR, peptide immobilized. The method, boiled down: as §2

Assay [4] addresses T4, Peptide F (monkey PAR-2), N-terminal biotinylated (Monkey (Macaca mulatta), N-terminal biotin via G4S linker).
T4 construct: also called Peptide F N-Term
Put plainly: SPR, antibody captured. As for the experimental part:
as §1

In assay [5] the target is T5, full length human PAR-2 (human, UniProt P55085 26-397).
T5 construct: overexpressed on HEK293-derived 293/D9 cells; also called 293/D9/hPAR-2rec cells
Put plainly: MSD cell binding. An outline of the steps:
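Antibodies, two-fold dilutions from 100 nM to 0.098 nM, bound for 1 h at room temperature to HEK293/D9 cells stably expressing human or mouse PAR-2, detected by sulfo-tagged anti-human IgG electrochemiluminescence. Parental 293/D9 signal was subtracted; EC50 and Bmax came from sigmoidal dose-response fits.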

The target of assay [6] is T5, full length human PAR-2. Put plainly: cell-based or functional assay.
Assay [7] has as its target T1, Peptide A (human PAR-2), unbiotinylated. Put plainly: peptide ELISA titration. (An ELISA detects its analyte on a solid surface through an enzyme-linked reagent.)
For assay [8], the target named is T4, Peptide F (monkey PAR-2), N-terminal …. Put plainly: peptide ELISA titration.
The target in assay [9] is T6, Peptide A (human PAR-2), N-terminal biotinylated (Human, N-terminal biotin via G4S linker).
T6 construct: also called Peptide A N-Term
T6 peptide: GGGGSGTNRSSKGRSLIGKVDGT
Put plainly: peptide ELISA titration.

Assay [10] has as its target T2, Peptide A (human PAR-2), C-terminal …. Put plainly: peptide ELISA titration.
Assay [11] deals with T4, Peptide F (monkey PAR-2), N-terminal …. Put plainly: SPR, peptide immobilized.
The target of assay [12] is T6, Peptide A (human PAR-2), N-terminal …. Put plainly: SPR, peptide immobilized.
Assay [13] deals with T7, Peptide B (human PAR-2), N-terminal biotinylated (Human).
T7 construct: also called Peptide B N-Term
T7 peptide: Biotin-GGGGSSLIGKVDGTSHVTG
Put plainly: SPR, peptide immobilized.

T5 sequence (P55085 26-397 G138A limits assumed): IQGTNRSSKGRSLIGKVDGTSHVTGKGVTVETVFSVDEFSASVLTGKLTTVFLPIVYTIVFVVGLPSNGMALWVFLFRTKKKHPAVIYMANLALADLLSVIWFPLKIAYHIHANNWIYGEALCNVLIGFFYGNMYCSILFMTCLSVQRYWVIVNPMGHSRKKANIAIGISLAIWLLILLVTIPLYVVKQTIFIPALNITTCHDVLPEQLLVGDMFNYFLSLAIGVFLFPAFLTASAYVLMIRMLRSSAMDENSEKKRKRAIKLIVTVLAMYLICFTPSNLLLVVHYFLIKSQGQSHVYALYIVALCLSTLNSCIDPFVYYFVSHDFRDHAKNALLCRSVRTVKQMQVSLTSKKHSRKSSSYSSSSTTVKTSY
T4 sequence (peptide, as listed by the source): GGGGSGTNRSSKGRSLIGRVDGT

B1: H4H583P (antibody, human IgG4, V domains shown)
VH: QVQLVESGGGVVQPGMSLRLSCTASGFTFRRYGMHWVRQAPGKGLEWVAVIWYDGSNKYYADSVKGRFTITRDNSKNTLYLQMNSLRAEDTAIYFCASEITIGDWFDPRGQGTLVTVSS
VL: AIQMTQSPSSLSASVGDRVTITCRASQGIRNDLGWFQQKPGKVPKLLIYAASTLHSGVPSRFSGSGFGTDFTLTISSLQPEDFATYYCLQDFNYPLTFGGGTKVEIK
notes: also called H1H583P variable regions
In the case of B1, the dissociation constant Kd is 37.1 nM in assay [1]; 0.898 nM in assay [2]; 112 nM in [4]; 0.291 nM in assay [11]; 0.412 nM in assay [12]. Moreover, the T1/2 in assay [1] stood at 0.37 min; in [2], 34 min; in assay [4], 0.47 min; in assay [11], 73 min; in [12], 46 min. The binding result in assay [3] and in assay [13] was “no binding” throughout. This molecule yielded a Bmax in the assay with full length human PAR-2 [5] of 13300 MSD Unit. For the same molecule, the EC50 with full length human PAR-2 [5] turned out to be 2.12 nM; in assay [7] it was 0.008 nM; in [8] it was 0.013 nM; in [9] it was 0.015 nM; in assay [10], 0.018 nM. Besides, the “IC50, NF-kB-luciferase, 20 nM Trypsin” value in the assay with full length human PAR-2 [6] was 14 nM.
